# Source: patent publication US20070020717A1 (ARBOR VITA, published 2007)
# B1: GST-PDZ fusion protein, PDZ domain of MAST2 (Accession no. AB047005) (other)
# chain: ISALGSMRPPIIIHRAGKKYGFTLRAIRVYMGDSDVYTVHHMVWHVEDGGPASEAGLRQGDLITHVNGEPVHGLVHTEVVELILKSGNKVAISTTPLENSS
# notes: also called MAST2 PDZ domain
# B2: GST-PDZ fusion protein, PDZ domain of SHANK1 (GID 7025450) (other)
# chain: ILKEKTVLLQKKDSEGFGFVLRGAKAQTPIEEFTPTPAFPALQYLESVDEGGVAWRAGLRMGDFLIEVNGQNVVKVGHRQVVNMIRQGGNTLMVKVVMVTRHPDMDEAVQNSS
# notes: also called SHANK1 PDZ domain
# B3: GST-PDZ fusion protein, PDZ domain of SHANK2 (GID 6049185) (other)
# chain: ILEEKTVVLQKKDNEGFGFVLRGAKADTPIEEFTPTPAFPALQYLESVDEGGVAWQAGLRTGDFLIEVNNENVVKVGHRQVVNMIRQGGNHLVLKVVTVTRNLDPDDNSS
# notes: also called SHANK2 PDZ domain
# B4: GST-PDZ fusion protein, PDZ domain of SHANK3 (XM_037493 GID: 51476100) (other)
# chain: SDYVIDDKVAVLQKRDHEGFGFVLRGAKAETPIEEFTPTPAFPALQYLESVDVEGVAWRAGLRTGDFLIEVNGVNVVKVGHKQVVALIRQGGNRLVMKVVSVTRKPEEDG
# notes: also called SHANK3 PDZ domain
# Columns and labels:
# [1] = biological target: T1, Peptide 1956 (N-terminally biotinylated Tat-COX-2 peptide); assay: ELISA (modified G assay): GST-PDZ captured by anti-GST antibody, biotinylated peptide, HRP-streptavidin
# T1 construct: also called PL of COX-2
# [2] = biological target: T1, Peptide 1956 (N-terminally biotinylated …); assay: ELISA titration of the biotinylated peptide on captured GST-PDZ
Binder,binding result [1],binding result [2]
B1,binds,–
B2,–,binds
B3,–,binds
B4,–,binds
